This note sets out measurements from patent US20120316071A1 (published 2012).

Where a chain is given by its changes, count along the chain named. Numbers in names are those of the source.

Assay [1] has as its target T1, rHuman IGF-1 sR (insulin-like growth factor-1 soluble receptor), CF (R&D Systems Cat#391-GR) (human, UniProt P08069 31-932).
T1 construct: Bought recombinant soluble receptor
Kind of assay: MSD ECL multispot assay, antigen spotted on plate, Fab in solution; blank spot of this row 348.

In assay [2] the target is T2, Recombinant Human DLL4 (R&D Systems Cat#1506-D4/CF) (human, UniProt Q9NR61 27-524).
T2 construct: Bought recombinant protein; also called delta-like protein 4; rHuman DLL4
The description is as above.

Assay [3] concerns the target T3, rHuman Notch-1/Fc Chimera, CF (R&D Systems Cat#3647-TK) (human, UniProt P46531 19-526).
T3 construct: Bought recombinant protein; not shown: Fc of the bought chimera
The description is as above.

Assay [4] has as its target T4, rHuman Erythropoietin R/Fc Chimera, CF (R&D Systems Cat#963-ER) (human, UniProt P19235 25-250).
T4 construct: Bought recombinant protein; also called EPO R; EPO R/Fc; not shown: Fc of the bought chimera
T4 sequence (looked up): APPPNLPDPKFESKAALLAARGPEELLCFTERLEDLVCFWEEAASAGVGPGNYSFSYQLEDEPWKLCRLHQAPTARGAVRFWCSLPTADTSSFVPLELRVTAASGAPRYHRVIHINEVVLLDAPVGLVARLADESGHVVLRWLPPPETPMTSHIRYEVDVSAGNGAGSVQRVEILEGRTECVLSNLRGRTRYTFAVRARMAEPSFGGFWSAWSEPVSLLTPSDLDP
The description is as above.

In assay [5] the target is T5, rHuman HGF R/c-MET/Fc Chimera, CF (R&D Systems Cat#358-MT/CF) (human, UniProt P08581 25-932).
T5 construct: Bought recombinant protein; also called HGF R/Fc; not shown: Fc of the bought chimera
Described as above.

Assay [6] concerns the target T6, rHuman CD44/Fc Chimera, CF (R&D Systems Cat#3660-CD) (human, UniProt P16070 21-220).
T6 construct: Bought recombinant protein; not shown: Fc of the bought chimera
The assay is described as above.

For assay [7], the target named is T7, rHuman EGF R/Fc Chimera, CF (R&D Systems Cat#344-ER) (human, UniProt P00533 25-645).
T7 construct: Bought recombinant protein; not shown: Fc of the bought chimera
Described as above.

The target of assay [8] is T8, rHuman ErbB2/Fc Chimera, CF (R&D Systems Cat#1129-ER) (human, UniProt P04626 23-652).
T8 construct: Bought recombinant protein; not shown: Fc of the bought chimera
The description is as above.

Assay [9] concerns the target T1, rHuman IGF-1 sR (insulin-like growth …). Kind of assay: MSD ECL multispot assay, antigen spotted on plate, Fab in solution; blank spot of this row 504.
Assay [10] addresses T2, Recombinant Human DLL4 (R&D Systems …). Described as above.
Assay [11] has as its target T3, rHuman Notch-1/Fc Chimera, CF (R&D …). Described as above.
In assay [12] the target is T4, rHuman Erythropoietin R/Fc Chimera, CF …. The assay is described as above.
Assay [13] concerns the target T5, rHuman HGF R/c-MET/Fc Chimera, CF (R&D …). The description is as above.
Assay [14] concerns the target T6, rHuman CD44/Fc Chimera, CF (R&D Systems …). Described as above.
The target of assay [15] is T7, rHuman EGF R/Fc Chimera, CF (R&D …). Described as above.
Assay [16] concerns the target T8, rHuman ErbB2/Fc Chimera, CF (R&D …). The description is as above.
Assay [17] addresses T9, rHuman IGF-1 sR, CF (R&D Systems Cat#391-GR) (human, UniProt P08069 31-932).
T9 construct: Bought recombinant soluble receptor; also called insulin-like growth factor-1 soluble receptor
The experiment in a line: ECL Multispot (MSD) binding assay, antigen spotted on plate, Fab in solution.

Assay [18] concerns the target T10, rHuman Notch-1/Fc Chimera, CF (R&D Systems Cat#3647-TK) (human, UniProt P46531 19-526).
T10 construct: Bought recombinant Fc chimera; Fc part of the bought chimera not given
The description is as above.

Assay [19] concerns the target T11, rHuman CD44/Fc Chimera, CF (R&D Systems Cat#3660-CD) (human, UniProt P16070 21-220).
T11 construct: Bought recombinant Fc chimera; Fc part of the bought chimera not given
The assay is described as above.

The target in assay [20] is T12, rHuman EGF R/Fc Chimera, CF (R&D Systems Cat#344-ER) (human, UniProt P00533 25-645).
T12 construct: Bought recombinant Fc chimera; also called epidermal growth factor receptor; Fc part of the bought chimera not given
The assay is described as above.

Assay [21] deals with T13, rHuman ErbB2/Fc Chimera, CF (R&D Systems Cat#1129-ER) (human, UniProt P04626 23-652).
T13 construct: Bought recombinant Fc chimera; also called human epidermal growth factor 2 receptor; Fc part of the bought chimera not given
The assay is described as above.

Assay [22] has as its target T14, rHuman P-Cadherin/Fc Chimera, CF (R&D Systems Cat#861-PC) (human, UniProt P22223 108-654).
T14 construct: Bought recombinant Fc chimera; Fc part of the bought chimera not given
Described as above.

The target of assay [23] is T15, rHuman HGF R/c-MET/Fc Chimera, CF (R&D Systems Cat#358-MT/CF) (human, UniProt P08581 25-932).
T15 construct: Bought recombinant Fc chimera; also called HGF R/Fc; hepatocyte growth factor receptor; Fc part of the bought chimera not given
Described as above.

Assay [24] addresses T16, Recombinant Human DLL4 (R&D Systems Cat#1506-D4/CF) (human, UniProt Q9NR61 27-524).
T16 construct: Bought recombinant human DLL4; also called delta-like protein 4; Delta-like 4
The description is as above.

For assay [25], the target named is T17, rHuman Erythropoietin R/Fc Chimera, CF (R&D Systems Cat#963-ER) (human, UniProt P19235 25-250).
T17 construct: Bought recombinant Fc chimera; also called EPO R; EPO R/Fc; Fc part of the bought chimera not given
T17 sequence (looked up): T4 sequence (looked up)
Described as above.

Assay [26] addresses T18, rHuman Erythropoietin R/Fc Chimera, CF (R&D Systems Cat#963-ER) (human, UniProt P19235 25-250).
T18 construct: Bought reagent; also called EPO R; Epo R/Fc
T18 sequence (looked up): T4 sequence (looked up)
Kind of assay: ECL Multispot (MSD) assay; antigen spotted on plate, Fab in solution.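 Note: fab bound 1 h at 20 °C, detected by TAG-labelled antibody electrochemiluminescence, signal relative to each well's blank, ratio of 4 or more marks a hit.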

The target in assay [27] is T19, rHuman CD44/Fc Chimera, CF (R&D Systems Cat#3660-CD) (human, UniProt P16070 21-220).
T19 construct: Bought reagent
The assay is described as above.

In assay [28] the target is T20, rHuman P-Cadherin/Fc Chimera, CF (R&D Systems Cat#861-PC) (human, UniProt P22223 108-654).
T20 construct: Bought reagent
Described as above.

Assay [29] concerns the target T21, Recombinant Human DLL4 (R&D Systems Cat#1506-D4/CF) (human, UniProt Q9NR61 27-524).
T21 construct: Bought recombinant protein; also called delta-like protein 4; rHuman DLL4
The assay is described as above.

Assay [30] concerns the target T22, rHuman EGF R/Fc Chimera, CF (R&D Systems Cat#344-ER) (human, UniProt P00533 25-645).
T22 construct: Bought reagent; also called epidermal growth factor receptor
The description is as above.

For assay [31], the target named is T23, rHuman HGF R/c-MET/Fc Chimera, CF (R&D Systems Cat#358-MT/CF) (human, UniProt P08581 25-932).
T23 construct: Bought reagent; also called HGF R/Fc; hepatocyte growth factor receptor
The assay is described as above.

For assay [32], the target named is T24, rHuman ErbB2/Fc Chimera, CF (R&D Systems Cat#1129-ER) (human, UniProt P04626 23-652).
T24 construct: Bought reagent; also called human epidermal growth factor 2 receptor
The assay is described as above.

The target of assay [33] is T25, rHuman IGF-1 sR, CF (R&D Systems Cat#391-GR) (human, UniProt P08069 31-932).
T25 construct: Bought soluble receptor; the column head 'IGF-1' means IGF-1 sR; also called insulin-like growth factor-1 soluble receptor
The assay is described as above.

Assay [34] addresses T26, rHuman Notch-1/Fc Chimera, CF (R&D Systems Cat#3647-TK) (human, UniProt P46531 19-526).
T26 construct: Bought reagent
The description is as above.

B1: Fab VH1-46_IGHD6-6*01_IGHJ1*01 S102A/S103P/S104F/H111F (APFF) & L6_IGKJ1*01 S92C (Fab, V domains shown)
VH: QVQLVQSGAEVKKPGASVKVSCKASGYTFTSYYMHWVRQAPGQGLEWMGIINPSGGSTSYAQKFQGRVTMTRDTSTSTVYMELSSLRSEDTAVYYCAREEYAPFSAEYFQFWGQGTLVTVSS
VL: EIVLTQSPATLSLSPGERATLSCRASQSVSSYLAWYQQKPGQAPRLLIYDASNRATGIPARFSGSGSGTDFTLTISSLEPEDFAVYYCQQRCNWPPWTFGQGTKVEIKR
notes: Fab; also called APFF / S92C
For B1, the ECL signal in assay [1] was 471; in assay [2], 1340; in assay [3], 439; in assay [4], 601; in assay [5] it was 472; in assay [6], 458. The ECL signal came to 452 in [7]; 425 in [8]; 666 in assay [9]; 1260 in assay [10]; 611 in assay [11]; 845 in assay [12]. The ECL signal in [13] came to 616; in [14] it was 646; in assay [15] it was 638; in assay [16], 573.

B2: Fab VH1-46_IGHD6-6*01_IGHJ1*01 S102A/S103P/S104F/H111F (APFF) & L6_IGKJ1*01 S92G (Fab, V domains shown)
VH: B1 VH
VL: B1 VL with C92G
notes: Tested as a Fab made in E. coli; also called APFF / S92G; H:APFF & L6_IGKJ1*01 S92G
For B2, the ECL signal in assay [17] was 323; in assay [18], 541; in assay [19] it was 413; in assay [20], 420; in [21] it was 377; in assay [22] it was 402. Moreover, the ECL signal was 287 in assay [23], 91400 in [24] and 543 in assay [25].

B3: Fab VH1-46_IGHD6-6*01_IGHJ1*01 S102A/S103P/S104F (APF) & L6_IGKJ1*01 Y32S (Fab, V domains shown)
VH: B1 VH with F111H
VL: B1 VL with Y32S, C92S
notes: Fab format as for the parent (CH1 with His6/Flag tags, kappa CL); also called APF / Y32S
Consider B3, for which the ECL signal in assay [26] turned out to be 230; in assay [27] it was 162; in assay [28] it was 51; in assay [29] it was 1030; in assay [30], 208; in assay [31], 222. The ECL signal in assay [32] was 154; in [33] it was 175; in [34], 137.
